From IntAct's records for PubMed 16963558

B1: Non-structural protein 1 (Influenza A virus (strain A/Puerto Rico/8/1934 H1N1)), P03496 (parent)
chain: MDPNTVSSFQVDCFLWHVRKRVADQELGDAPFLDRLRRDQKSLRGRGSTLGLDIETATRAGKQIVERILKEESDEALKMTMASVPASRYLTDMTLEEMSRDWSMLIPKQKVAGPLCIRMDQAIMDKNIILKANFSVIFDRLETLILLRAFTEEGAIVGEISPLPSLPGHTAEDVKNAVGVLIGGLEWNDNTVRVSETLQRFAWRSSNENGRPPLTPKQKREMAGTIRSEV

Variants of: B1
Settings: with p85b_human PIK3R2, O00459
Sequence of p85b_human PIK3R2, O00459 (O00459 whole entry): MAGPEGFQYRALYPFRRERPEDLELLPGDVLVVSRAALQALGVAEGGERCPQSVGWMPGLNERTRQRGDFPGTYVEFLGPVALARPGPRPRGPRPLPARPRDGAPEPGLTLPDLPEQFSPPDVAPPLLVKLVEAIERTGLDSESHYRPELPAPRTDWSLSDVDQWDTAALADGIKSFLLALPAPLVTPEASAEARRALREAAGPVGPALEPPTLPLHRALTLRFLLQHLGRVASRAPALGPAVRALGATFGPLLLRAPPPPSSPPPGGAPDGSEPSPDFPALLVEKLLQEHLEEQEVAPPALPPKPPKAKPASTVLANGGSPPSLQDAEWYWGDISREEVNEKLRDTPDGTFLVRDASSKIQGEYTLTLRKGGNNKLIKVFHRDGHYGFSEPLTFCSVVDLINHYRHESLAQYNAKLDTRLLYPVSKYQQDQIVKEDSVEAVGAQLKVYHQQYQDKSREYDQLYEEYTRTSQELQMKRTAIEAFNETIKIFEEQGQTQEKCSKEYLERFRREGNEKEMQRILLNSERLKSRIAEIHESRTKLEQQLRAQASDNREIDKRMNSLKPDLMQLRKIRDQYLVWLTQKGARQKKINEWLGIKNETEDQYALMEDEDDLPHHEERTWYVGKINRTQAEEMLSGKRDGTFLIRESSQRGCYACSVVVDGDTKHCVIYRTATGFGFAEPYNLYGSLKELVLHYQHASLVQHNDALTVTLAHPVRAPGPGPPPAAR

Variant	effect of a mutation on the interaction
Y89F	disrupting interaction strength
M93A	disrupting interaction strength

Variants of: B1
Settings: with p85b_bovin PIK3R2, P23726
Sequence of p85b_bovin PIK3R2, P23726 (P23726 whole entry): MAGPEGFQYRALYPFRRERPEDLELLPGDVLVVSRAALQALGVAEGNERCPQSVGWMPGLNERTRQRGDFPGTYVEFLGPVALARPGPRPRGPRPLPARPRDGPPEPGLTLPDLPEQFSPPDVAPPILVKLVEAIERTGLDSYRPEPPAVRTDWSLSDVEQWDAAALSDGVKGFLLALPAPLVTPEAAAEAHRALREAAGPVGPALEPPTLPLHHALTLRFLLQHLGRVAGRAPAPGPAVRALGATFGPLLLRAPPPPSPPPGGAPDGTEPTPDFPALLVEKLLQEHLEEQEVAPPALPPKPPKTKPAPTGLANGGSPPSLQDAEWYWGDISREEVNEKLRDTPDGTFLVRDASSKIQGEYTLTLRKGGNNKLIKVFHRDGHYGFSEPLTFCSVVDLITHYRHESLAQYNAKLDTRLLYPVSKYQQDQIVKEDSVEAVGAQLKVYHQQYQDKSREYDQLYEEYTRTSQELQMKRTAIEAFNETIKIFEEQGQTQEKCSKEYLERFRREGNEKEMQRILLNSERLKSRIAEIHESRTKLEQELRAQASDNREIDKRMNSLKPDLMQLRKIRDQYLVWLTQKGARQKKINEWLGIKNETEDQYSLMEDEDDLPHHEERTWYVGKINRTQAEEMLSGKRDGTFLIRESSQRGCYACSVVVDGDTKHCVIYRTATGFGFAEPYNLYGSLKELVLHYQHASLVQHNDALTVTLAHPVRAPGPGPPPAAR

Variant	effect of a mutation on the interaction
Y89F	disrupting interaction strength
